Laboratory results taken from US10801046B2, “Methods and materials for biosynthesizing multifunctional, multivariate molecules via carbon chain modification” (INVISTA NORTH AMERICA S.A.R.L., priority 2016, dated 2020).

Assays:
[1] = tested on: heptanedioyl-ACP methyl ester; experiment: Cell lysate in vitro thioesterase screen (DTNB, absorbance at 410 nm) on heptanedioyl-ACP methyl ester; assay type: biochemical; conditions: 0.33 mM acyl-ACP substrate, 30° C., 30 min
[2] = tested on: heptanedioyl-ACP methyl ester; assay type: cell-based, Escherichia coli; conditions: top 150 hits screened in vivo
[3] = In vivo carboxylate reductase screening, substrate consumption by LC-MS, monomethyl heptanedioate; assay type: cell-based, Escherichia coli; conditions: 541 enzymes screened in vivo
Procedure: To screen carboxylate reductases in vivo, […] T7- pUC expression vectors was co-transformed into T7 Express lysY/Iq with the phosphopantetheinyl transferase sfp from Bacillus subtilis on a T7-pCDF expression vector. Biological duplicates of the resulting strains were incubated in 0.5 mL of terrific broth containing either 1 g/L heptanedioate or 1 g/L monomethyl heptanedioate and supplemented with 0.4 mM IPTG in 96-well deep well plates. The plates were incubated for 30 h at 30° C. in a shaking incubator. The cells were then pelleted, and culture supernatants from the same strains in media containing either heptanedioate or monomethyl heptanedioate were combined. The combined supernatants were analyzed by LC-MS to determine the concentration of heptanedioate and monomethyl heptanedioate. Carboxylate reductase activity on heptanedioate or monomethyl heptanedioate was reflected by consumption of the respective substrate in the medium.

B1: SEQ ID NO: 75: Clostridium thermocellum thioesterase (protein, listed as Clostridium thermocellum)
chain: MQKKRFSKKYEVHYYEINSMQEATLLSLLNYMEDCAISHSTSAGYGVNELLAADAGWVLYRWLIKIDRLPKLGETITVQTWASSFERFYGNREFIVLDGRDNPIVKASSVWIYFNIKKRKPMRIPLEMGDAYGIDETRALEEPFTDFDFDFEPKVIEEFTVKRSDIDTNSHVNNKKYVDWIMETVPQQIYDNYKVTSLQIIYKKESSLGSGIKAGCVIDEQNTDNPRLLHKIWDKNTGLELVSAETIWQKIQS
modifications: Clostridium thermocellum (strain ATCC 27405 / DSM 1237 / NBRC 103400 / NCIMB 10682 / NRRL B-4536 / VPI 7372)
notes: Clostridium thermocellum thioesterase
[1]
  activity toward heptanedioyl-ACP methyl ester (hydrolysis): notable for their activity toward heptanedioyl-ACP methyl ester
[2]
  activity toward heptanedioyl-ACP methyl ester in vivo: showed activity toward heptanedioyl-ACP methyl ester

B2: SEQ ID NO: 208: Ascaris suum carboxylate reductase (protein, listed as Ascaris suum)
chain: MRYWWKTSHSNYKLDAVCDINNQTRELPVSVASCKDGSRVAACLDGDHLAPFIHEDALTLYEGVRRGLRVSNNGPMLGYRKKQPDGSEPYVWLTYKEVIDRAVDFAYGLLDVGIPAGQKTFIGVYAKNRPEWVIAEQGTYNNNSVLVPLYETLGPDACTFIINQSEMSMVICDTEVKAAGLLKEKENIPTLKYLVVMEDYTNGLREAAAREGVYVYHFLDIEKRGREFVNKPALQIPSPGDVCTICYTSGTTGAPKGVMLTHGNVIAAATALTFVRNINFCETDVVISFLPLAHMFERLLECIIFQTGAHVGFFSGDIRRLPEDIKELRPTVIPLVPRVLNRIYDKVMSEVNKSFIKKAVFHFALAFKVRELRNGIVRNDSVFDKLVFNKIRDAMGGRVKLMVTGSAPLAEKVMTFARAAMGCVVLEGYGQTECAAASTLGIEADTRAGHVGIPSICNAVKLVDVPELEYYAKDMVGEVCIRGFNVFKGYYKNDELTREVLDDQGWLHTGDVGRWTENGTLQIIDRKKHIFKLSQGEYVAPEKIEGIYARSKYVAQSFVHGESLKTCLVGVIVPDPEALERVAAERFGLKDVKLKELCSNEAVRQLILEDITAVGKKAGLFSFEQVKDIFLTPDAFSVGNDLLTPTLKNKRPKLKEHFAAQLESMYSKLN
[3]
  monomethyl heptanedioate activity: most monomethyl heptanedioate activity

B3: SEQ ID NO: 61: Congregibacter litoralis KT71 thioesterase (protein)
chain: MGLLLGLALLLTGQLARAESTAGERPRILVVGDSISAAYGMSLEQGWAALLERRLQTRWPGAQVINASISGDTSAGGARRLPKLLAEHSPDLVVIELGGNDGLRGYPTSKLEANLSFMAEAASTAGAEVLILPMEIPPNYGPRYTRSFRESFERAATDTGATLGPFLLDGIATEEQLMQQDGIHPTVEAQPMITDIVQPVIEALLALREAS
modifications: Congregibacter litoralis KT71
notes: Congregibacter litoralis KT71 thioesterase
[1]
  activity toward heptanedioyl-ACP methyl ester (hydrolysis): notable for their activity toward heptanedioyl-ACP methyl ester

B4: SEQ ID NO: 207: Dictyostelium discoideum carboxylate reductase (protein, listed as Dictyostelium discoideum)
chain: MINNWLAVGLLVVSGILAFNWKRKHPYGQTVEIGEKPENGGRIRRNSACADHLISFLEDDEIYTLYDSLVKSCKKYGERKCFGERKKDSNGNLGKFEWISYNTYLERCEYIQQGLCELGLKPKSKVGIFSKNRLEWLIVHSASFIQSYCVVSFYETLGVESLSYVTEHAEIGLAFCSAETLQKTLDIAKGVKVLKTIICFDSIDKEHYNIAKELGVTLYTYDEIMKKGKEANGKHKHTPPTPDTLSTIMYTSGTTGPPKGVMITHKNLTSVVCAVSDFIKVYDTDVHYSYLPYAHVLERVVILAAFHFGAAIGIFSGDISNILVEVKLLSPTLFIGVPRVFERIKTNVFKEISKKPALLRTLFNGAYNLKYLSIQHGFKLPIIEKVLDLVFFSKIKQALGGKVRVILSGSAPLSFDTEVFLRVVMCCCVLQGYGASEGCGGDACKRLDDESVGTIGPPFASNEIKLVDVPELGYDSNGEVQTGEVCLRGPSISSGYYKDEEKTREEFKDGWFHTGDIGRWNRDGSLSIVDRKKNIFKLSQGEYVAVEKIETIVVKSEYVEQVCIYGDSQKSCVIAIIHPHPESCSEWAGSKKTDKDIKEICKNQDFIKVVLDDIIKNCKKSGLHGFEIPKAIHLTPEAFSDQNNLLTPSFKLKRHEIKKYFEDEIKKLYSKLD
[3]
  monomethyl heptanedioate activity: most monomethyl heptanedioate activity

B5: SEQ ID NO: 76: Thermovirga lienii thioesterase (protein, listed as Thermovirga lienii)
chain: MYEHNFRISYSQAGALGRLKLTGAMNLCQDIADDHAERVGVSVADLLKQSKTWVLHRFKMTIQTMPQRGDLVTIKTWYRPEKNLYSLRNFEMLDCNGKKLLSVQTSWVVVDMNRGRPLRLDRVMPEAYDKNKDENLEVSFQELLLPEKVDVKKTIQVAVTDLDMNFHVNNVHYLRWALDTIPVEILKEYKPKGVEIAFKRPAFYGDSVISEVGIDKNSCSILCRHHIYGEKDGQSMAVISTEWEKISREER
modifications: Thermovirga lienii (strain ATCC BAA-1197 / DSM 17291 / Cas60314)
notes: Thermovirga lienii thioesterase
[1]
  activity toward heptanedioyl-ACP methyl ester (hydrolysis): notable for their activity toward heptanedioyl-ACP methyl ester
[2]
  activity toward heptanedioyl-ACP methyl ester in vivo: showed activity toward heptanedioyl-ACP methyl ester

B6: SEQ ID NO: 210: Rhizopus microspores carboxylate reductase (protein, listed as Rhizopus microsporus)
chain: MPPAFDPPYSVPVPGSEKKEGETVPFRHFKFADKLVDHPEGVFTAWDIFVHGYDSAGDKPFMGTRRIEDGVAKEYVWQNYPEVRTRIENFGKGMLHLGLKRQHAIGVYSVNRPEWTMTEIASYRQAFMIVALYDTLGAEAMEYIINQTSMEYIVLSADKLDNIIRLKSQIATISTAIVMDDEVDDAKKAEAEAAGIKVYTFRQVETMGSEITSESDLPKPEDIATICYTSGTTGVPKGAVITQANCVAAISAIAALGDKGTFADVNSDDIYISYLPLAHVFERVAQGIHLFRGAAIGYYQGDTLKLLDDIAELRPTVFCSVPRLFNRIYDKVLAGVKAKGGVSAYLFNTAFQSKKRHLSKTVHHWLWDRVVFTQIRQKLGGRLRFILSGSAPVSPDVMDFMRICFSAKVFEGYGQTENFCGGALTITDDNTSGVVGAPFPCSEIKLVDVPEMEYFSTDKPFPRGEICIRGTSIMQGYYQLPEKTAEAIDKDGWLHTGDIGQFDSANRLVIIDRLKNIFKLSQGEYIAPEKIEGVYQKHELVAQAFIYGDSMQSSLVGIIVPDKDAFSAWAKEHFPTVEDPYASDEVKKALLKELTAYGKENDLKGFEQMRSVYLTPNEFSIENDLLTPTFKLRRENAKKVYESQIEIMYASLSNGRAFN
[3]
  monomethyl heptanedioate activity: most monomethyl heptanedioate activity

B7: SEQ ID NO: 94: Paenibacillus sp. IHBB 10380 thioesterase (protein)
chain: MGNIWTEEHLIYSNEIDYKANCRLSNLLSLMQRAADGDVEHMGGTRDQMVAHHLGWMLTTIDLACERMPIFNETLKITTWNKGTKGPLWLRDFRIFDENNQEIAKACTLWALVDIDKRKVLRPSAYPFNINSNHEDSVGPVPDKLNISDEVELYHSYSITVRYSGIDSNGHLNNSRYADLCMDTLTQSELDTLSILGFHITYYHEVKSAEQIQVLRSDHLEGYIYFRGQSLEDERYFEACLHVG
modifications: Paenibacillus sp. IHBB 10380
notes: Paenibacillus sp; IHBB 10380 thioesterase
[1]
  activity toward heptanedioyl-ACP methyl ester (hydrolysis): notable for their activity toward heptanedioyl-ACP methyl ester

B8: SEQ ID NO: 209: Nocardia brasiliensis NBRC 14402 carboxylate reductase (protein)
chain: MERKAEVLAARRVEDLIERDAQVRAAIPDPVVTAELERADGSLAQTVARVMAGYADRPALGQRAVEFVPDENGCRRTRLLPWFDTITFGELWQRVGTVAAVWQSRAERSVRAGDFVAVLGSTGIDYTVVDLACTYSGAVPVPLQAGASPTQLAPIVREVEPKVLATDVGQLEVAVDLASAGDSVRSLLIFGLYAEDDEHCAAVESARRRLADTPVVVETIVELLASGQDRPAASLHASADPDELALLIYTSGSTGTPKGAMYTQRLLTNAWCAAGASPMPSIALSYLPMSHTMARQLLLTGLARGGTVYFAARNDMSTLFDDFALARPTLLGFVPRVCDMVLQRFQSEMARRVGADDEPTVVEQEVKTELREQFLGGRFLVASIGSAPLSADMREFMQSVLGIALIDAYGSTETGGVLMNNKVVRTAILDYKLVDVPELGYFSTDRPHPRGELLIKSRTLIPGYYKRPELNSQFFDAEGFYRTGDVMAQTGFDELVYVDRRNSVLKLSQGEFVAVSKLEAIFVGSPLVEQIYVYGSSERAYLLAVIVPVAEAIATHAGTAELKAAISESLRQIAKDAELSSYEVPRDFLLESEPFTVDNGLLAGLSKLLRPSLKERYGERLEALYRVAEAAQTQELAALRQQAGMLPVLETVSRAAQAVLGVSAAELRPDAHFTDLGGDSLAALSFSTLLQELLGVQVPVGVIASSANDLRRIANYAVAERSAGSLRPTSTGVHGTGSQLRAIDLRLDKFIDPSTLAAATTLPRAGEPRTVLLTGANGYLGRFLCLEWLQRLHHSGGTLICVVRGIDAVAARERLDEVFDSGDPELLHRYRELAEGTLEVLCGDISEPGLGLSERDWRRLADTVELIVHAAALVNHVLPYGQLFGPNVVGTAEIIRLAMTTRIKPVTYLSTVAVAAQVAPEQFTEDGDIREISAVRSLDEGYADGYGTSKWAGEVLLREAYDLCGLPVAVFRSDMILAHSRFAGQLNVSDMFTRLVLSVLATGVAPKSFYETDRMGNRQRAHYDGLPVDFTAQAITVLGSQVVSGFETFDVLNPHDDGLSLDEFVDWLIAAGHSIDRIDGYAEWLSRFGTALRVLSERQRQHSVLPLLHAYRRAAVPIPGAALPAKKFQAAVQDAQLGPGRDIPHLTPDLIEKYVSDLKLRNLL
modifications: Nocardia brasiliensis NBRC 14402
notes: Nocardia brasiliensis NBRC 14402 carboxylate reductase
[3]
  monomethyl heptanedioate activity: most monomethyl heptanedioate activity
